Assay results published in patent US11591604B2, “Gene expression in Bacteroides” (Massachusetts Institute of Technology, priority 2015, dated 2023).

B1: Int12: Serine integrase, SEQ ID NO: 167 (protein)
chain: MKVAIYTRVSSAEQANEGYSIHEQKKKLISYCEIHDWNEYKVFTDAGISGGSMKRPALQKLMKHLSSFDLVLVYKLDRLTRNVRDLLDMLEEFEQYNVSFKSATEVFDTTSAIGKLFITMVGAMAEWERETIRERSLFGSRAAVREGNYIREAPFCYDNIEGKLHPNEYAKVIDLIVSMFKKGISANEIARRLNSSKVHVPNKKSWNRNSLIRLMRSPVLRGHTKYGDMLIENTHEPVLSEHDYNAINNAISSKTHKSKVKHHAIFRGALVCPQCNRRLHLYAGTVKDRKGYKYDVRRYKCETCSKNKDVKNVSFNESEVENKFVNLLKSYELNKFHIRKVEPVKKIEYDIDKINKQKINYTRSWSLGYIEDDEYFELMEEINATKKMIEEQTTENKQSVSKEQIQSINNFILKGWEELTIKDKEELILSTVDKIEFNFIPKDKKHKTNTLDINNIHFKF

Experiments:
Bacteroides spp = experiment: pNBU1 integration and gene expression across Bacteroides and Parabacteroides species; format: cell-based
Description: FIG. 11 is a graph showing that pNBU1 may be used to target, for example, B. thetaiotaomicron, B. fragilis, B. ovatus, B. vulgatus, B. caccae, B. eggerthii, B. vulgatus and Parabacteroides distasonis.
An integration vector, designated pNBU1, was created to introduce recombinant DNA into a wide range of Bacteroides species (FIG. 10). IntN1 integrase catalyzes site-specific genomic integration of the plasmid into recipient Bacteroides strains.

B. thetaiotaomicron = experiment: Cell growth (OD600) of P3763-rpiL*C51-Int12 strain versus rhamnose concentration; format: cell-based; settings: even when maximally expressed
Description: FIGS. 8A-8B. Integrase characterization. (FIG. 8A) Representative PCR products are shown for wild-type (unflipped) memory array at each integrase recognition sequence. “−” indicates no integrase, “+” indicates the integrase is present. PAM4-rpiL* was used to control expression of each integrase. (FIG. 8B) Cell growth of the P3763-rpiL*C51-Int12 strain is shown as optical density (OD) at 600 nm as a function of rhamnose concentration. Inducer concentrations were three-fold serial dilutions starting at 10 mM rhamnose. The leftmost data point represents the […] in the absence of inducer. Cells were grown 8 hours at 37° C. before measuring the OD600 value for each culture. Error bars represent the standard deviation of three biological replicates made on three different days (n=3).
To create an inducible memory switch, Int12 was cloned under the control of the rhamnose-inducible promoter with the rpiL*RBS variant C51 (FIG. 3E) (see also FIG. 1C, Table 1).

[1] = tested on: integrase recognition sequences in the memory array; experiment: Integrase-mediated DNA inversion in chromosomal memory array detected by PCR; format: cell-based, B. thetaiotaomicron; settings: integrase expressed from PAM4-rpiL*, PCR detection
Description: (FIG. 3C) Integrase-mediated DNA inversion at each integrase target sequence in the memory array cassette was detected by polymerase chain reaction (PCR). Primer pairs (arrows) anneals to the interface of the integrase recognition sites and to the spacer region between recognition sites. PCR amplification occurs only after an inversion event (solid lines below the primer arrows indicate expected amplicons). (FIG. 3D) Representative PCR products are shown after recombination. − indicates no integrase, + indicates the integrase is present. PAM4-rpiL* was used to control expression of each integrase.

Row | Molecule | host range and efficiency relative to the pNBU2 plasmid (Bacteroides spp) | impact on growth of B. thetaiotaomicron (B. thetaiotaomicron) | recombination at the respective recognition sequence in the memory array [1]
1 | pNBU1: integration vector with IntN1 integrase, SEQ ID NO: 209 | greater host range and efficiency | – | –
2 | B1 | – | did not impact growth | catalyzed recombination
